{"source": "paper doi:10.1101/2021.08.22.457263", "about": "“Reconstitution of surface lipoprotein translocation reveals Slam as an outer membrane translocon in Gram-negative bacteria” (bioRxiv, 2021)", "binders": {"B1": {"name": "His-tagged E. coli Skp, purified (natural protein, UniProt P0AEU7 21-161, looked up)", "chain": "ADKIAIVNMGSLFQQVAQKTGVSNTLENEFKGRASELQRMETDLQAKMKKLQSMKAGSDRTKLEKDVMAQRQTFAQKAQAFEQDRARRSNEERGKLVTRIQTAVKSVANSQDIDLVVDANAVAYNSSDVKDITADVLKQVK"}}, "biological_target": "T1, M. catarrhalis transferrin binding protein B with C-terminal flag-tag (Mcat TbpB-flag) (Moraxella catarrhalis, UniProt P0DTW7 21-706, lipidated)", "T1 sequence": "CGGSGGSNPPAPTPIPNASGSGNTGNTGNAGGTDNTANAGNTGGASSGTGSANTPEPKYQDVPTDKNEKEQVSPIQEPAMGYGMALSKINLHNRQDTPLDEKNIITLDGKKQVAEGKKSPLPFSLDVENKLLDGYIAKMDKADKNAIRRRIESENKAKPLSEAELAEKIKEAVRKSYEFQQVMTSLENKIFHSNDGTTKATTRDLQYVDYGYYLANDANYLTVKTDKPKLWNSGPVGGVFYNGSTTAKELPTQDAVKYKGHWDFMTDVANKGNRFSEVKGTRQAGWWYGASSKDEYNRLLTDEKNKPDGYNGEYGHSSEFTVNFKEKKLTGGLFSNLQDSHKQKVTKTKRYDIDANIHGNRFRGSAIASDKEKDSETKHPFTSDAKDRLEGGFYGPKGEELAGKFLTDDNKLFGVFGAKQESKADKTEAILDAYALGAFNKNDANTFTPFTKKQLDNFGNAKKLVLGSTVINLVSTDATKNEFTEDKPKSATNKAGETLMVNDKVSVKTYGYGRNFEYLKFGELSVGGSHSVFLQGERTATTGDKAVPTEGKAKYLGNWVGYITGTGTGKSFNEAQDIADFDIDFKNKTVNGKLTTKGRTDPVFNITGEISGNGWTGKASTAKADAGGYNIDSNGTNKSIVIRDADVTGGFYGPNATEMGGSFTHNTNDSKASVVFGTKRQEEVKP", "assay": "cell-based or functional assay"}
{"binder": "B1", "values": [{"measurement": "protection of urea-unfolded purified TbpB from proteinase K with empty liposomes, Skp added against SurA added", "value": 2, "unit": "fold"}]}
